Assays:
[1] = molecular target: T1, eIF4G (S. cerevisiae, UniProt P39935 1-952; P07260 1-213); experiment: global fit of RNA unwinding time courses to a thermodynamic model; K1/2 of a binding step calculated with the model of Figure 4A; RNA bound to the target before the step, no ATP; settings: both partners purified
T1 construct: eIF4G1, scaffolding protein of translation initiation, S. cerevisiae; present in the preparations of eIF4G; the model treats G as one unit; also called eIF4G1; S•Tag-eIF4G; source: recombinant, expression and purification previously described (Hilliker et al., 2011)
T1 sequence (looked up) 1: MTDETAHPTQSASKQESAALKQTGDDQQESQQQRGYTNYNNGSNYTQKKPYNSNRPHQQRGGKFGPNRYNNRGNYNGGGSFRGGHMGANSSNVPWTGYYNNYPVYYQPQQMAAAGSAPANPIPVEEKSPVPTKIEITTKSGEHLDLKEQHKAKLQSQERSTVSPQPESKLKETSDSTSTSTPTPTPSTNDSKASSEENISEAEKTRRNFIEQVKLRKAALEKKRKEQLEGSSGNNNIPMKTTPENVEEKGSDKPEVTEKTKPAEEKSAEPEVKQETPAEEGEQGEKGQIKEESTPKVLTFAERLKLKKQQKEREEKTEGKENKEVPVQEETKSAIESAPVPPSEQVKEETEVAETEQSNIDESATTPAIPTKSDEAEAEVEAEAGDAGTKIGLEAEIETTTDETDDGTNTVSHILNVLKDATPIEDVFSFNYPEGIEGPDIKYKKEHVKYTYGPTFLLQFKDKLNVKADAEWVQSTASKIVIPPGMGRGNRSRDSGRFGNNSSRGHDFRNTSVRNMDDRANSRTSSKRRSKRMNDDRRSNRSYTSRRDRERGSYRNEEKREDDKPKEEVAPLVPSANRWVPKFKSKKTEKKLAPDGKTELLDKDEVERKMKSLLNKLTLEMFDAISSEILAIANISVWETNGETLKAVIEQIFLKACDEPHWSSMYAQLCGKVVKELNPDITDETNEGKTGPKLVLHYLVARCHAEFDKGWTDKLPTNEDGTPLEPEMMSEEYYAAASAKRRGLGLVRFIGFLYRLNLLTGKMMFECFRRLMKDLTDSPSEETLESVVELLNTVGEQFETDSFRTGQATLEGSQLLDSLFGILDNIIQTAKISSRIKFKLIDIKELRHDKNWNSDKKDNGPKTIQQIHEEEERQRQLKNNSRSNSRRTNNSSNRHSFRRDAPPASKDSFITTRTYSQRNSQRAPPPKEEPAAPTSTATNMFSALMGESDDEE
T1 sequence (looked up) 2: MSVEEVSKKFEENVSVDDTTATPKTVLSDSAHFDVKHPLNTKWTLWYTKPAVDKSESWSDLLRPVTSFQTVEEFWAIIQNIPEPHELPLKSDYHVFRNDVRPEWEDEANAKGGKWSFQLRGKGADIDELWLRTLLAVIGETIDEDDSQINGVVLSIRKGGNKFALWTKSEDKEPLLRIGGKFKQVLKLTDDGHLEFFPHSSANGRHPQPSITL

[2] = molecular target: T2, Ded1p-eIF4G complex (S. cerevisiae, UniProt P06634 1-604; P39935 1-952; P07260 1-213); experiment: as above; settings: both partners purified
T2 construct: Ded1p, S. cerevisiae, wild type, as Wm1; eIF4G1, S. cerevisiae, as in Wm3; eIF4E, S. cerevisiae, as in Wm3; present in the preparations of eIF4G; State of the thermodynamic model; also called DG; DTG; source: formed from the purified recombinant proteins; copies: + +
T2 sequence (P06634 whole entry, one chain of several): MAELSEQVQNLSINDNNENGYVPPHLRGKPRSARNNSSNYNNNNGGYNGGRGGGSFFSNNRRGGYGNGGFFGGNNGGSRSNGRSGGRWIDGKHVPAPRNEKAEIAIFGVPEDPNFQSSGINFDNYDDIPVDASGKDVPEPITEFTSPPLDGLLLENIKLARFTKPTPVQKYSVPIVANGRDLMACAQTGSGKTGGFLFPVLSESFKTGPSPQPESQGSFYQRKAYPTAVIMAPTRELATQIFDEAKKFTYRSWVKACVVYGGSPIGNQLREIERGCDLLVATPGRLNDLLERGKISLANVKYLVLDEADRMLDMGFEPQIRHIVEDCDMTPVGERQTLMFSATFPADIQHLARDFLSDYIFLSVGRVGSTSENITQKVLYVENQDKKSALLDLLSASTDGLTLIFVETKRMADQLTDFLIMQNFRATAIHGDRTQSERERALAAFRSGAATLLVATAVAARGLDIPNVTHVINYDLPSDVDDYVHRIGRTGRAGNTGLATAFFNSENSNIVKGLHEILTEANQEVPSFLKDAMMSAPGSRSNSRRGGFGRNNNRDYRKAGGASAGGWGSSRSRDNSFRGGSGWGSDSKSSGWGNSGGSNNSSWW

[3] = molecular target: T2, Ded1p-eIF4G complex; experiment: global fit of RNA unwinding time courses to a thermodynamic model; K1/2 of a binding step calculated with the model of Figure 4A; RNA bound to the binder before the step, ATP bound to Ded1p; settings: both partners purified
[4] = molecular target: T1, eIF4G; experiment: global fit of RNA unwinding time courses to a thermodynamic model; K1/2 of a binding step calculated with the model of Figure 4A; RNA bound to the binder before the step, ATP bound to eIF4A; settings: both partners purified
[5] = molecular target: T2, Ded1p-eIF4G complex; experiment: global fit of RNA unwinding time courses to a thermodynamic model; K1/2 of a binding step calculated with the model of Figure 4A; RNA bound to the binder before the step, ATP bound to Ded1p and to eIF4A; settings: both partners purified
[6] = molecular target: HA-tagged Ded1p (His6-Ded1p-HA3) (S. cerevisiae), P06634; experiment: pull-down; Ded1p-HA held on anti-HA antibody and Protein G Dynabeads; 300 nM S•Tag-eIF4G and 1500 nM eIF4A added together; 20 µg/mL RNases A,B; 8°C overnight; washed with HRB-Na100 buffer; Western blot; settings: remark: other sources report otherwise
HA-tagged Ded1p (His6-Ded1p-HA3) (S. cerevisiae), P06634, sequence (P06634 whole entry): as the sequence (P06634 whole entry, one chain of several) above

Kd [1]: 1060 nM
Kd [2]: 7 nM
Kd [3]: 0.006 nM
Kd [4]: 49 nM
Kd [5]: 0.013 nM
relative band intensity (pull-down compared to input), with eIF4G present [6]: 25%
B1: eIF4A (enzyme, S. cerevisiae, UniProt P10081 1-395, looked up)
chain: MSEGITDIEESQIQTNYDKVVYKFDDMELDENLLRGVFGYGFEEPSAIQQRAIMPIIEGHDVLAQAQSGTGKTGTFSIAALQRIDTSVKAPQALMLAPTRELALQIQKVVMALAFHMDIKVHACIGGTSFVEDAEGLRDAQIVVGTPGRVFDNIQRRRFRTDKIKMFILDEADEMLSSGFKEQIYQIFTLLPPTTQVVLLSATMPNDVLEVTTKFMRNPVRILVKKDELTLEGIKQFYVNVEEEEYKYECLTDLYDSISVTQAVIFCNTRRKVEELTTKLRNDKFTVSAIYSDLPQQERDTIMKEFRSGSSRILISTDLLARGIDVQQVSLVINYDLPANKENYIHRIGRGGRFGRKGVAINFVTNEDVGAMRELEKFYSTQIEELPSDIATLLN
notes: eIF4A, DEAD-box RNA helicase, S. cerevisiae, wild type; also called wild-type yeast eIF4A; source: recombinant, purified as described (Hilliker et al., 2011)

Source: paper PMC4990422, “Coupling between the DEAD-box RNA helicases Ded1p and eIF4A” (eLife, 2016)
